Drawing on patent US20250228943A1, this text covers percent CD69^+CD25^+ effector cells after five rounds of co-culture with TGFβ (flow cytometry) for one substance.

The target of the assay is TGFβR2-IL18R redirector receptor. In words: cell-based or functional assay.
Sequence of TGFβR2-IL18R redirector receptor (chain, as listed by the source): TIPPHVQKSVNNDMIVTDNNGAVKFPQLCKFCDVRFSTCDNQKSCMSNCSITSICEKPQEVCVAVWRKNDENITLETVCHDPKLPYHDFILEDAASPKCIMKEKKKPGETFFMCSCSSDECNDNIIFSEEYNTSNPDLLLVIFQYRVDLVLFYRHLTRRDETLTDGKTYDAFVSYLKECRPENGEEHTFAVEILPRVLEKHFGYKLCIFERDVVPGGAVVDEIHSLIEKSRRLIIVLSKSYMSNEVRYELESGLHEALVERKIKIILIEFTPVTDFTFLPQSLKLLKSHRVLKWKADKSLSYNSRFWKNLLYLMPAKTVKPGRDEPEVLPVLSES

Regarding TGFβ (ligand), the percent CD69^+CD25^+ effector cells after five rounds of co-culture with TGFβ (flow cytometry) was found to be 61.6%.
